Experimental data: PMC4166039
Read-outs that look alike come from different tables or passages of the source. Values belong to the substance of their own block, whether it stands above or below them.

Tests used:
Assay in all cases: cross-linking
[1] = target: hamster IgG1 anti-CD3E antibody (145-2C11) (hamster)
[2] = target: human IgG1 (human) [IgG part: P01857]
[3] = target: human IgG2 isotype control antibody (human) [IgG part: P01859]
[4] = target: human IgG4 isotype control antibody (human) [IgG part: P01861]
[5] = target: human IgG1 (human) [IgG part: P01857]; remark: listed apart in the source
[6] = target: mouse IgG2a (mouse)
[7] = target: mouse IgG2b isotype control antibody (mouse) (UniProt P01867)
[8] = target: mouse IgG3 (mouse)
[9] = target: rat IgG2b anti-ICAM1 antibody (YN-1) (rat) (UniProt P20761)
[10] = target: rat IgG2c isotype control antibody (rat) (UniProt P20762)
[11] = target: mouse IgG1 (mouse) [IgG part: P01868]
[12] = target: rat IgG1 isotype control antibody (rat)
[13] = target: mouse IgG1 (mouse) [IgG part: P01868]; remark: listed apart in the source

Chain of UniProt P20762 (P20762 whole entry, looked up): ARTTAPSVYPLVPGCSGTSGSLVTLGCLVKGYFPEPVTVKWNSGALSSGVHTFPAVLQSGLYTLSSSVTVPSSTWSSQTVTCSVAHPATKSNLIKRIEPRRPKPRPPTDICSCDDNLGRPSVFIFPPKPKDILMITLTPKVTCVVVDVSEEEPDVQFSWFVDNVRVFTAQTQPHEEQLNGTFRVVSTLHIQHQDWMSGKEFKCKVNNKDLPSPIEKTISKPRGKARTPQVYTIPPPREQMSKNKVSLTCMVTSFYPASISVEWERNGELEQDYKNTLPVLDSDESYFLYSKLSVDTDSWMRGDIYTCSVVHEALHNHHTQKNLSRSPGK
Chain of UniProt P20761 (P20761 whole entry, looked up): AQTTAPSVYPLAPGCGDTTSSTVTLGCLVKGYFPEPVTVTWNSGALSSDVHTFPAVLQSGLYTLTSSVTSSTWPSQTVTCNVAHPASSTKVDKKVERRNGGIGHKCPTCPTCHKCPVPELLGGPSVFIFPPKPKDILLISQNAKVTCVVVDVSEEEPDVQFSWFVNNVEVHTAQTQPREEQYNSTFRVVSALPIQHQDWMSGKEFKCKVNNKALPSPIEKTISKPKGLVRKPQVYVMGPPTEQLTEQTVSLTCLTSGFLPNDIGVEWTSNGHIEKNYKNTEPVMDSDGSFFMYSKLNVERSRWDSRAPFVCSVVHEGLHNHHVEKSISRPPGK

percent of heavy chains cross-linked (1 h UV) [1]: 30%
percent of heavy chains cross-linked (1 h UV) [2]: 47%
percent of heavy chains cross-linked (2 h UV) [2]: > 55%
percent of intact IgG cross-linked (1 h UV) [2]: 60%
percent of intact IgG cross-linked (2 h UV) [2]: > 70%
percent of heavy chains cross-linked (1 h UV) [3]: 17%
percent of heavy chains cross-linked (1 h UV) [4]: 50%
percent of heavy chains cross-linked (1 h UV) [5]: 50%
Substance: Protein Z K35BPA variant (designed binder)

Substance: Protein Z K35BPA variant with the background F5I mutation (designed binder)
percent of heavy chains cross-linked (1 h UV) [1]: 37%

percent of heavy chains cross-linked (1 h UV) [6]: 60%
percent of heavy chains cross-linked (1 h UV) [7]: 71%
percent of heavy chains cross-linked (15 min UV) [8]: > 70%
percent of heavy chains cross-linked (1 h UV) [8]: 80%
percent of heavy chains cross-linked (2 h UV) [8]: 90%
percent of intact IgG cross-linked (15 min UV) [8]: 90%
percent of intact IgG cross-linked (1 h UV) [8]: > 95%
percent of intact IgG cross-linked (2 h UV) [8]: > 96%
percent of heavy chains cross-linked (1 h UV) [9]: 20%
percent of heavy chains cross-linked (1 h UV) [10]: 60%
Substance: Protein Z L17BPA variant (designed binder)

percent of heavy chains cross-linked (1 h UV) [1]: 20%
percent of heavy chains cross-linked (1 h UV) [2]: 37%
percent of heavy chains cross-linked (1 h UV) [3]: 12%
percent of heavy chains cross-linked (1 h UV) [11]: 50%
percent of heavy chains cross-linked (2 h UV) [11]: > 55%
percent of intact IgG cross-linked (1 h UV) [11]: 60%
percent of intact IgG cross-linked (2 h UV) [11]: > 70%
percent of heavy chains cross-linked (1 h UV) [12]: 10%
percent of heavy chains cross-linked (1 h UV) [13]: 50%
Substance: Protein Z Q32BPA variant (designed binder)
